This test addresses LILRB4 on human monocytic AML THP-1 cells (human) (UniProt Q8NHJ6). The test is described as follows: flow cytometry, anti-His tag-APC alone on wild-type THP-1 cells (negative control); lilrb4-knockout THP-1 cells in the same panel: KO 0.9% [panel e]. Background: Flow cytometry measures light scatter and fluorescence of single cells or particles in a stream.

LILRB4 on human monocytic AML THP-1 cells (human), sequence (Q8NHJ6 22-448): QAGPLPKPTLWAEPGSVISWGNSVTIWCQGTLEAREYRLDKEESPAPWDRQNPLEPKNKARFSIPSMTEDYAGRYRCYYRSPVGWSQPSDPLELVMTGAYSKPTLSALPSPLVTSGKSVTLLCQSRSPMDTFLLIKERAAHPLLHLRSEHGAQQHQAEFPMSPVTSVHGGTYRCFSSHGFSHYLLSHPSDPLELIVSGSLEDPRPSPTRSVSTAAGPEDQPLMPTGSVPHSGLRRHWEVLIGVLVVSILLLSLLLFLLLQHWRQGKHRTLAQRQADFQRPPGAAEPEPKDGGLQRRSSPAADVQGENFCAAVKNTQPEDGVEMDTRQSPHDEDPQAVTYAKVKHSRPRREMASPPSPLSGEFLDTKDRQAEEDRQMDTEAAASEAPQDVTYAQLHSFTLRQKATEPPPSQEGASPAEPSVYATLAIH

Substance Ctrl (anti-His tag-APC) (antibody) registered a % of cells in the positive gate of 0.4%.

The values are drawn from patent US20210349096A1.
